Data taken from the Human Domainome abundance scans (Beltran et al. 2025).
± gives the uncertainty stated by the source.

B1: Tripartite motif-containing protein 49C, residues 87 to 133; numbered along this chain, P0CI26 (parent)
chain: SSEEQMCGTHRETKKIFCEVDRSLLCLLCSSSQEHRYHRHRPIEWAA
B2: Lysine-specific demethylase 5C, residues 319 to 373; numbered along this chain, P41229 (parent)
chain: AQFIESYVCRMCSRGDEDDKLLLCDGCDDNYHIFCLLPPLPEIPKGVWRCPKCVM

Variants of: B1
Test: abundance fitness (aPCA) (normalised: wild type 0, dead -1); higher = more abundant; growth selection in yeast, the domain comes from the species named
Settings: Homo sapiens

Variant | abundance fitness
SFEEQMCGTHRETKKIFCEVDRSLLCLLCSSSQEHRYHRHRPIEWAA [S2F] | 0.205 ± 0.14
SDEEQMCGTHRETKKIFCEVDRSLLCLLCSSSQEHRYHRHRPIEWAA [S2D] | -0.354 ± 0.21
SLEEQMCGTHRETKKIFCEVDRSLLCLLCSSSQEHRYHRHRPIEWAA [S2L] | -0.204 ± 0.12
SVEEQMCGTHRETKKIFCEVDRSLLCLLCSSSQEHRYHRHRPIEWAA [S2V] | -0.29 ± 0.11
SPEEQMCGTHRETKKIFCEVDRSLLCLLCSSSQEHRYHRHRPIEWAA [S2P] | -0.042 ± 0.22
SIEEQMCGTHRETKKIFCEVDRSLLCLLCSSSQEHRYHRHRPIEWAA [S2I] | -0.017 ± 0.14
SREEQMCGTHRETKKIFCEVDRSLLCLLCSSSQEHRYHRHRPIEWAA [S2R] | -0.268 ± 0.096
SAEEQMCGTHRETKKIFCEVDRSLLCLLCSSSQEHRYHRHRPIEWAA [S2A] | -0.21 ± 0.1
SNEEQMCGTHRETKKIFCEVDRSLLCLLCSSSQEHRYHRHRPIEWAA [S2N] | -0.538 ± 0.17
SEEEQMCGTHRETKKIFCEVDRSLLCLLCSSSQEHRYHRHRPIEWAA [S2E] | -0.222 ± 0.14
SYEEQMCGTHRETKKIFCEVDRSLLCLLCSSSQEHRYHRHRPIEWAA [S2Y] | -0.647 ± 0.3
SKEEQMCGTHRETKKIFCEVDRSLLCLLCSSSQEHRYHRHRPIEWAA [S2K] | -0.114 ± 0.14
SSEEHMCGTHRETKKIFCEVDRSLLCLLCSSSQEHRYHRHRPIEWAA [Q5H] | -0.315 ± 0.18
SSEEAMCGTHRETKKIFCEVDRSLLCLLCSSSQEHRYHRHRPIEWAA [Q5A] | -0.358 ± 0.1
SSEEDMCGTHRETKKIFCEVDRSLLCLLCSSSQEHRYHRHRPIEWAA [Q5D] | 0.159 ± 0.13
SSEECMCGTHRETKKIFCEVDRSLLCLLCSSSQEHRYHRHRPIEWAA [Q5C] | -0.643 ± 0.21
SSEEGMCGTHRETKKIFCEVDRSLLCLLCSSSQEHRYHRHRPIEWAA [Q5G] | -0.244 ± 0.081
SSEEEMCGTHRETKKIFCEVDRSLLCLLCSSSQEHRYHRHRPIEWAA [Q5E] | -0.609 ± 0.13
SSEEFMCGTHRETKKIFCEVDRSLLCLLCSSSQEHRYHRHRPIEWAA [Q5F] | -0.424 ± 0.12
SSEAQMCGTHRETKKIFCEVDRSLLCLLCSSSQEHRYHRHRPIEWAA [E4A] | -0.224 ± 0.13
SSELQMCGTHRETKKIFCEVDRSLLCLLCSSSQEHRYHRHRPIEWAA [E4L] | -0.278 ± 0.11

Variant | abundance fitness
SSEPQMCGTHRETKKIFCEVDRSLLCLLCSSSQEHRYHRHRPIEWAA [E4P] | -0.196 ± 0.12
SSEQQMCGTHRETKKIFCEVDRSLLCLLCSSSQEHRYHRHRPIEWAA [E4Q] | -0.726 ± 0.23
SSECQMCGTHRETKKIFCEVDRSLLCLLCSSSQEHRYHRHRPIEWAA [E4C] | -0.591 ± 0.21
SSEHQMCGTHRETKKIFCEVDRSLLCLLCSSSQEHRYHRHRPIEWAA [E4H] | -0.351 ± 0.18
SSEYQMCGTHRETKKIFCEVDRSLLCLLCSSSQEHRYHRHRPIEWAA [E4Y] | -0.35 ± 0.21
SSEMQMCGTHRETKKIFCEVDRSLLCLLCSSSQEHRYHRHRPIEWAA [E4M] | 0.015 ± 0.15
SSEFQMCGTHRETKKIFCEVDRSLLCLLCSSSQEHRYHRHRPIEWAA [E4F] | -0.59 ± 0.22
SSEKQMCGTHRETKKIFCEVDRSLLCLLCSSSQEHRYHRHRPIEWAA [E4K] | -0.502 ± 0.19
SSEGQMCGTHRETKKIFCEVDRSLLCLLCSSSQEHRYHRHRPIEWAA [E4G] | -0.68 ± 0.091
SSETQMCGTHRETKKIFCEVDRSLLCLLCSSSQEHRYHRHRPIEWAA [E4T] | 0.02 ± 0.14
SSESQMCGTHRETKKIFCEVDRSLLCLLCSSSQEHRYHRHRPIEWAA [E4S] | -0.244 ± 0.11
SSERQMCGTHRETKKIFCEVDRSLLCLLCSSSQEHRYHRHRPIEWAA [E4R] | -0.252 ± 0.081
SSEWQMCGTHRETKKIFCEVDRSLLCLLCSSSQEHRYHRHRPIEWAA [E4W] | -0.577 ± 0.11
SSEVQMCGTHRETKKIFCEVDRSLLCLLCSSSQEHRYHRHRPIEWAA [E4V] | -0.093 ± 0.097
SSEIQMCGTHRETKKIFCEVDRSLLCLLCSSSQEHRYHRHRPIEWAA [E4I] | -0.142 ± 0.15
SSEDQMCGTHRETKKIFCEVDRSLLCLLCSSSQEHRYHRHRPIEWAA [E4D] | -0.035 ± 0.16
TSEEQMCGTHRETKKIFCEVDRSLLCLLCSSSQEHRYHRHRPIEWAA [S1T] | -0.496 ± 0.19
YSEEQMCGTHRETKKIFCEVDRSLLCLLCSSSQEHRYHRHRPIEWAA [S1Y] | -0.277 ± 0.22
VSEEQMCGTHRETKKIFCEVDRSLLCLLCSSSQEHRYHRHRPIEWAA [S1V] | -0.121 ± 0.22
LSEEQMCGTHRETKKIFCEVDRSLLCLLCSSSQEHRYHRHRPIEWAA [S1L] | -0.156 ± 0.15
ESEEQMCGTHRETKKIFCEVDRSLLCLLCSSSQEHRYHRHRPIEWAA [S1E] | -0.003 ± 0.21

Variant | abundance fitness
ASEEQMCGTHRETKKIFCEVDRSLLCLLCSSSQEHRYHRHRPIEWAA [S1A] | -0.49 ± 0.19
CSEEQMCGTHRETKKIFCEVDRSLLCLLCSSSQEHRYHRHRPIEWAA [S1C] | -0.79 ± 0.26
FSEEQMCGTHRETKKIFCEVDRSLLCLLCSSSQEHRYHRHRPIEWAA [S1F] | 0.294 ± 0.23
GSEEQMCGTHRETKKIFCEVDRSLLCLLCSSSQEHRYHRHRPIEWAA [S1G] | -0.526 ± 0.41
SSIEQMCGTHRETKKIFCEVDRSLLCLLCSSSQEHRYHRHRPIEWAA [E3I] | -0.492 ± 0.22
SSPEQMCGTHRETKKIFCEVDRSLLCLLCSSSQEHRYHRHRPIEWAA [E3P] | -0.172 ± 0.14
SSKEQMCGTHRETKKIFCEVDRSLLCLLCSSSQEHRYHRHRPIEWAA [E3K] | -0.295 ± 0.22
SSFEQMCGTHRETKKIFCEVDRSLLCLLCSSSQEHRYHRHRPIEWAA [E3F] | -0.346 ± 0.18
SSTEQMCGTHRETKKIFCEVDRSLLCLLCSSSQEHRYHRHRPIEWAA [E3T] | -0.487 ± 0.18
SSAEQMCGTHRETKKIFCEVDRSLLCLLCSSSQEHRYHRHRPIEWAA [E3A] | 0.051 ± 0.1
SSHEQMCGTHRETKKIFCEVDRSLLCLLCSSSQEHRYHRHRPIEWAA [E3H] | -0.246 ± 0.26
SSREQMCGTHRETKKIFCEVDRSLLCLLCSSSQEHRYHRHRPIEWAA [E3R] | -0.213 ± 0.081
SSWEQMCGTHRETKKIFCEVDRSLLCLLCSSSQEHRYHRHRPIEWAA [E3W] | -0.156 ± 0.12
SSGEQMCGTHRETKKIFCEVDRSLLCLLCSSSQEHRYHRHRPIEWAA [E3G] | -0.147 ± 0.091
SSYEQMCGTHRETKKIFCEVDRSLLCLLCSSSQEHRYHRHRPIEWAA [E3Y] | -0.592 ± 0.25
SSLEQMCGTHRETKKIFCEVDRSLLCLLCSSSQEHRYHRHRPIEWAA [E3L] | -0.176 ± 0.1
SSVEQMCGTHRETKKIFCEVDRSLLCLLCSSSQEHRYHRHRPIEWAA [E3V] | -0.292 ± 0.1
SSDEQMCGTHRETKKIFCEVDRSLLCLLCSSSQEHRYHRHRPIEWAA [E3D] | 0.084 ± 0.17
SSSEQMCGTHRETKKIFCEVDRSLLCLLCSSSQEHRYHRHRPIEWAA [E3S] | -0.15 ± 0.098
SSMEQMCGTHRETKKIFCEVDRSLLCLLCSSSQEHRYHRHRPIEWAA [E3M] | -0.275 ± 0.12
SSCEQMCGTHRETKKIFCEVDRSLLCLLCSSSQEHRYHRHRPIEWAA [E3C] | 0.068 ± 0.18

Variants of: B2
Test: as above
Settings: Homo sapiens

Variant | abundance fitness
R49V | -0.25 ± 0.15
R49M | -0.092 ± 0.19
R49F | -0.358 ± 0.14
R49E | -0.178 ± 0.17
R49C | -0.468 ± 0.22
R49S | -0.324 ± 0.13
R49I | -0.176 ± 0.2
R49W | -0.085 ± 0.31
R49H | -0.134 ± 0.19
R49P | -0.949 ± 0.31
R49T | -0.055 ± 0.16
R49N | 0.268 ± 0.15
R49G | -0.4 ± 0.2
R49K | 0.205 ± 0.17
R49A | -0.262 ± 0.16
R49L | -0.164 ± 0.12
R49D | -0.865 ± 0.34
R49Q | 0.106 ± 0.19
C53R | -1 ± 0.17
C53K | -0.921 ± 0.48

Variant | abundance fitness
C53T | -0.939 ± 0.29
C53I | -0.941 ± 0.39
C53L | -0.909 ± 0.2
C53S | -0.835 ± 0.16
C53E | -0.952 ± 0.4
C53P | -0.744 ± 0.22
C53G | -0.865 ± 0.15
C53M | -0.713 ± 0.34
C53D | -0.889 ± 0.28
C53Y | -1.01 ± 0.3
C53W | -1.08 ± 0.27
W48V | -0.78 ± 0.14
W48L | -0.849 ± 0.15
W48M | -0.671 ± 0.17
W48I | -0.14 ± 0.27
W48A | -0.59 ± 0.11
W48G | -0.676 ± 0.14
W48C | -1.15 ± 0.44
W48K | -0.635 ± 0.18
